The first experiment addresses TOX (UniProt Q66JW3). The experiment can be described thus: TOX co-IP from EL4 nuclear extract, LC-MS/MS, MiST.
Chain of TOX (Q66JW3 whole entry): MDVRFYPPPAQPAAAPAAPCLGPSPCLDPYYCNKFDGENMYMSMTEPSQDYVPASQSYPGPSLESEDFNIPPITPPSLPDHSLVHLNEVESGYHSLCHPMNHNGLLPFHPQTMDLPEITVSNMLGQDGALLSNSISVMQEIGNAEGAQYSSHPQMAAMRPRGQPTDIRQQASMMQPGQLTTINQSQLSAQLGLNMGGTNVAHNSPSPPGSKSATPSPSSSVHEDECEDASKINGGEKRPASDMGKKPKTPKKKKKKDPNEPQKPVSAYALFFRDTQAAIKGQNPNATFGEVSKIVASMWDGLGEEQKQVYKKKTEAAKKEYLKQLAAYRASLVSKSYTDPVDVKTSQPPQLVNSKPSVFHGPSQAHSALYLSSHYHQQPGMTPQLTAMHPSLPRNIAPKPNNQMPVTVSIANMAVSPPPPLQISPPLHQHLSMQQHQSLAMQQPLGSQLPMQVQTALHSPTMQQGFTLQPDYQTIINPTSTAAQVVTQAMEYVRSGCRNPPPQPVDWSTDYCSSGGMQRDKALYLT
Chain of Utp11l (Q9CZJ1 whole entry): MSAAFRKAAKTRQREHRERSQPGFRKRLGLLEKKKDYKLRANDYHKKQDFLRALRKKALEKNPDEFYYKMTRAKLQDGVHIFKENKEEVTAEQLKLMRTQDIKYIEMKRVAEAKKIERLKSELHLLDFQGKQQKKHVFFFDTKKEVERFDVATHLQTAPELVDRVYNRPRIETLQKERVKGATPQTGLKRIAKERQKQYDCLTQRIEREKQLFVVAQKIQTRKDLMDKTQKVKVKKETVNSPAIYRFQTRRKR
As for Tmem214 (from UniProt Q8BM55 2-687), the Abundance worked out at 1.26e-06, the MiST Score stood at 0.85, the Reproducibility worked out at 0.532 and the Specificity came out at 1.
Take Dnajb11 (from UniProt Q99KV1 23-358): the Abundance worked out at 2.91e-05, the MiST Score turned out to be 0.839, the Reproducibility is 0.783 and the Specificity was found to be 0.872.
Consider Hsd17b10 (from UniProt O08756 2-261), for which the Abundance is 1.27e-05, the MiST Score was determined as 0.857, the Reproducibility came to 0.557 and the Specificity came out at 1.
Taken in the same sequence, the figures for Dhx29 (from UniProt Q6PGC1 1-1365) were 5.88e-07, 0.847, 0.928 and 0.818.
Wdr82 (from UniProt Q8BFQ4 1-313): the Abundance amounted to 0.00013, the MiST Score worked out at 0.846, the Reproducibility was 0.951 and the Specificity came out at 0.807.
On the same counts, the results for Ddx23 are 7.9e-06, 0.836, 0.837 and 0.843.
On the same counts, the results for Samd1 (from UniProt D3YXK1 1-519) are 2.47e-06, 0.829, 0.886 and 0.811.
In the case of Csrp1 (from UniProt P97315 1-193), the Abundance is 5.52e-05, the MiST Score turned out to be 0.828, the Reproducibility came to 0.966 and the Specificity was 0.773.
On the same counts, the results for Nsf (from UniProt P46460 1-744) are 2.87e-06, 0.838, 0.808 and 0.859.
The substance Utp11l came in with an Abundance of 4.22e-05, a MiST Score of 0.856, a Reproducibility of 0.553 and a Specificity of 1.
Substance Zmym4 (from UniProt A2A791 2-1549) yielded an Abundance of 1.92e-06, a MiST Score of 0.841, a Reproducibility of 0.503 and a Specificity of 1.
In the case of Skap2 (from UniProt Q3UND0 1-358), the Abundance is 4.76e-06, the MiST Score is 0.845, the Reproducibility came out at 0.516 and the Specificity was found to be 1.

Another experiment addresses TOX (UniProt Q66JW3). The experiment can be described thus: anti-TOX IP from EL4 nuclear extract, LC-MS/MS, MiST analysis.
On to Eif3h (from UniProt Q91WK2 1-352), for which the Abundance worked out at 0.000105, the MiST Score came out at 0.784, the Reproducibility was 0.956 and the Specificity came out at 0.714.
In the case of Ppan (from UniProt Q91YU8 1-470), the Abundance turned out to be 4.7e-05, the MiST Score came out at 0.792, the Reproducibility turned out to be 0.959 and the Specificity was 0.723.
On to Bag6 (from UniProt Q9Z1R2 1-1154), for which the Abundance is 1.4e-06, the MiST Score worked out at 0.782, the Reproducibility worked out at 0.765 and the Specificity is 0.797.
In turn, Slc25a4 (from UniProt P48962 2-298) returned an Abundance of 0.000186, a MiST Score of 0.765, a Reproducibility of 0.959 and a Specificity of 0.684.
On the same counts, the results for Racgap1 (from UniProt Q9WVM1 1-628) are 8.29e-06, 0.793, 0.868 and 0.765.
As for Rcc1 (from UniProt Q8VE37 2-421), the Abundance was found to be 2.79e-05, the MiST Score is 0.796, the Reproducibility was determined as 0.986 and the Specificity was determined as 0.717.
Turning to Wdr36, the Abundance was found to be 3.46e-06, the MiST Score was determined as 0.785, the Reproducibility turned out to be 0.886 and the Specificity was determined as 0.747.
The substance Rcc2 (from UniProt Q8BK67 1-520) showed an Abundance of 3.74e-05, a MiST Score of 0.79, a Reproducibility of 0.958 and a Specificity of 0.722.
On to “Csnk2a2 (from UniProt O54833 1-350) (enzyme)”, for which the Abundance amounted to 2.87e-05, the MiST Score amounted to 0.778, the Reproducibility turned out to be 0.913 and the Specificity turned out to be 0.725.
Taken in the same sequence, the figures for Slc25a3 (from UniProt Q8VEM8 46-357) were 6.71e-05, 0.778, 0.975 and 0.696.
On to Zw10 (from UniProt O54692 2-779), for which the Abundance amounted to 2.83e-06, the MiST Score is 0.767, the Reproducibility stood at 0.582 and the Specificity was 0.857.
On the same counts, the results for Elmo1 (from UniProt Q8BPU7 1-727) are 5.93e-06, 0.769, 0.595 and 0.854.
Acin1 (from UniProt Q9JIX8 1-1338) gave an Abundance of 2.27e-05, a MiST Score of 0.77, a Reproducibility of 0.612 and a Specificity of 0.848.
In turn, “Usp10 (from UniProt P52479 2-792) (enzyme)” had an Abundance of 3.26e-06, a MiST Score of 0.793, a Reproducibility of 0.613 and a Specificity of 0.881.
With “Umps (from UniProt P13439 1-481) (enzyme)”, the Abundance was found to be 2.41e-06, the MiST Score came out at 0.766, the Reproducibility was 0.792 and the Specificity was 0.761.
The substance Tcof1 (from UniProt O08784 1-1320) gave an Abundance of 0.000142, a MiST Score of 0.77, a Reproducibility of 0.984 and a Specificity of 0.681.
Consider Slc25a11 (from UniProt Q9CR62 2-314), for which the Abundance was found to be 2.29e-05, the MiST Score was determined as 0.788, the Reproducibility was 0.956 and the Specificity came to 0.72.
“Pfkl (from UniProt P12382 2-780) (enzyme)” displayed an Abundance of 3.37e-06, a MiST Score of 0.768, a Reproducibility of 0.501 and a Specificity of 0.894.
Brd1 came in with an Abundance of 3.1e-06, a MiST Score of 0.785, a Reproducibility of 0.321 and a Specificity of 1.
For Numa1 (from UniProt E9Q7G0 1-2094), the Abundance amounted to 1.43e-06, the MiST Score was determined as 0.787, the Reproducibility was 0.775 and the Specificity stood at 0.799.
Rbm15 (from UniProt Q0VBL3 1-962) showed an Abundance of 8.04e-06, a MiST Score of 0.776, a Reproducibility of 0.987 and a Specificity of 0.687.
On to Sin3a (from UniProt Q60520 1-1274), for which the Abundance was determined as 5.49e-06, the MiST Score was found to be 0.773, the Reproducibility amounted to 0.284 and the Specificity was found to be 1.
Taken in the same sequence, the figures for BC005685 were 0.000234, 0.779, 0.959 and 0.705.
In the case of Srrm2 (from UniProt Q8BTI8 1-2703), the Abundance came out at 1.1e-06, the MiST Score stood at 0.769, the Reproducibility came out at 0.861 and the Specificity was 0.734.
With Terf2 (from UniProt O35144 1-541), the Abundance is 6.86e-06, the MiST Score is 0.79, the Reproducibility stood at 0.994 and the Specificity came to 0.705.
Substance “Xrn2 (from UniProt Q9DBR1 1-951) (enzyme)” had an Abundance of 8.55e-06, a MiST Score of 0.787, a Reproducibility of 0.804 and a Specificity of 0.787.
The substance “Gm20425; Srprb (from UniProt P47758 1-269)” came in with an Abundance of 5.88e-06, a MiST Score of 0.766, a Reproducibility of 0.92 and a Specificity of 0.703.
Take Srp72: the Abundance was 3.55e-05, the MiST Score was 0.765, the Reproducibility was 0.872 and the Specificity worked out at 0.723.
On the same counts, the results for Ap3b1 (from UniProt Q9Z1T1 1-1105) are 4.13e-06, 0.778, 0.696 and 0.821.
In turn, “Smarca4 (from UniProt Q3TKT4 1-1613) (enzyme)” showed an Abundance of 6.52e-07, a MiST Score of 0.786, a Reproducibility of 0.594 and a Specificity of 0.879.
In turn, Hp1bp3 (from UniProt Q3TEA8 2-554) showed an Abundance of 1.65e-05, a MiST Score of 0.766, a Reproducibility of 0.779 and a Specificity of 0.766.
In turn, “Luzp1; mFLJ00226 (from UniProt Q8R4U7 2-1068)” came in with an Abundance of 7.26e-06, a MiST Score of 0.792, a Reproducibility of 0.856 and a Specificity of 0.77.
Taken in the same sequence, the figures for Cd3eap (from UniProt Q76KJ5 1-399) were 0.000224, 0.773, 0.993 and 0.68.
Lztfl1 (from UniProt Q9JHQ5 1-299) registered an Abundance of 6.33e-05, a MiST Score of 0.776, a Reproducibility of 0.894 and a Specificity of 0.73.
Substance Eif2a (from UniProt Q8BJW6 1-581) gave an Abundance of 8.58e-05, a MiST Score of 0.794, a Reproducibility of 0.992 and a Specificity of 0.712.
On the same counts, the results for Ywhah (from UniProt P68510 2-246) are 6.28e-05, 0.774, 0.819 and 0.761.

Source of the values: patent US20210071139A1.
